Laboratory results reported in patent US20240408167A1, “COMPOSITION FOR TREATING OCULAR DISEASES CONTAINING PEPTIDE” (Encuragen Inc., priority 2023, published 2024).
Several values for one entry are separate records, joined by “and”; a condition that tells them apart may be missing. Equal entries are not always repeated.

Key:
[1] = tested on: mouse experimental dry eye (EDE) model; experiment: Tear film break-up time (TBUT), EDE mouse model; format: in vivo
Method: (§1) To confirm the pharmacological effect and appropriate dosage, a pilot study was first conducted with the mice. In addition, a rabbit DED (Dry Eye Disease) model with a large exposed facial area was evaluated in comparison with a mouse model. In the mouse experimental dry eye (EDE) model, scopolamine hydrobromide (Sigma-Aldrich. St. Louis, MO, USA) was subcutaneously injected three times a day (9 a.m., 1:30 p.m., 6 p.m.) in a room exposed to ventilation with an ambient humidity of less than 40% at 25±2° C. to induce DED.
(§2) The mice were randomly divided into five groups: (1) EDE (experimental dry eye) control mice without eye drops administration, (2) EDE mice treated with a vehicle (phosphate-buffered saline), (3) EDE mice treated with 0.001% (PEG)-BHD1028 (4) EDE mice treated with 0.01% (PEG)-BHD1028, and (5) EDE mice treated with 0.1% (PEG)-BHD1028. All the treatment groups received 2 μL of eye drops three times a day.
TBUT is the time elapsed between the last blink and the first appearance of fluorescein decomposition, and it is an indicator of tear film stability. TBUT was evaluated by administering 1 μL of 1% fluorescein sodium dye to the lower conjunctival sac of the mice and visualizing the tear film using cobalt blue light of a slit-lamp biomicroscope. The measurement was repeated three times to obtain an average value.
Tear film instability is an important pathological characteristic of DED and the most common indicator of tear quality. […] The improvement in the 0.01% (PEG)-BHD1028 group was greater than that in the 0.001% (PEG)-BHD1028 group on Day 10 (p<0.05), but there was no difference between 0.01% and 0.1%.

[2] = tested on: mouse experimental dry eye (EDE) model; experiment: Corneal fluorescein staining (CFS) score, EDE mouse model; format: in vivo
Method: as §1, §2
The subjects were evaluated by corneal staining, and the abnormal findings of the eyelids, cornea, and conjunctiva were recorded. After dropping 1 μL of the 1% fluorescent dye solution and washing with saline solution, and the cornea was observed under a slit-lamp microscope and scored to evaluate the degree of epithelial damage (degree of fluorescent staining).
The clinical severity of the cornea was evaluated using a corneal fluorescein staining (CFS) method, which is widely used to detect foreign substances and corneal surface damage. A higher CFS score indicates more severe corneal epitheliopathy.

[3] = tested on: CD11b+ monocytes; experiment: CD11b+ monocytes by flow cytometry, EDE mouse model; format: in vivo; conditions: for geometric mean number of CD11b+ monocytes: cornea
Method: The cornea, conjunctiva, and each tissue required for analysis were excised with scissors, incised, and shaken with 0.5 mg/mL collagenase type D at 37° C. for 1 hour. After pulverizing the tissue, the resulting mixture was passed through a cell strainer, centrifuged, and resuspended in phosphate-buffered saline containing 1% bovine serum albumin.
In DED, corneal barrier destruction and epithelial cell loss are accompanied by bone marrow and T cell infiltration. Activated T lymphocytes are the primary producers of Th-1 cytokines and interferon (IFN)-γ, which promote cell death at the ocular surface. To evaluate the anti-inflammatory effect of (PEG)-BHD1028 in the EDE mouse model, immune cells that play the role of inflammatory cell surface markers were quantified by flow cytometry with one animal per group.

[4] = tested on: corneal epithelium; experiment: Corneal epithelial thickness after H&E staining, EDE rabbit model; format: in vivo; conditions: all treatment groups (0.1%, 0.2%, 0.4%), vs vehicle, p<0.001
Description: The extracted eyes were washed with phosphate-buffered saline (PBS), fixed in the modified Davidson's solution, and embedded in paraffin (Histocore Arcadia, Leica, Wetzlar, Germany). Afterwards, paraffin blocks were sliced into sections of a ˜6 μm thickness, mounted on microscope slides (HistoCore AUTOCUT, Leica, Germany), air dried, and stained with hematoxylin-eosin. The stained tissue slides were imaged, and data were obtained using an optical microscope/digital slide scanner (Axio Scan.Z1, Zeiss, Oberkochen, Germany). Image measurement was performed using ZEN (Zeiss, Germany) and ImageJ (NIH, Bethesda, […], USA) software programs.
The pathophysiology of dry eye syndrome includes pathological changes in the epithelium such as erosion, cicatrix, scar, corneal neovascularization and, in severe conditions, corneal perforation. The protective effect of (PEG)-BHD1028 on the epithelium was evaluated by measuring the corneal thickness using ZEN (Zeiss, Germany) microscopy software program after H&E tissue staining.

[5] = Stability according to pH, HPLC residual amount at 40±2° C.; format: physicochemical; conditions: for Residual amount: 40±2° C.
Method: To evaluate the stability of eye drops according to pH, a 10 mM pH buffer [10 mM sodium phosphate buffer+0.02% sodium azide (pH 5.5, pH 6.0, pH 6.5, pH 7.0) or a 10 mM PBS+WELGENE fresh media 10×PBS (pH 7.4)] was mixed with (PEG)-BHD1028 and the resulting mixture was incubated at 40±2° C., and then the stability was evaluated through an HPLC analysis. As a result of the evaluation, there was no significant difference in the residual amount between the formulation prepared at pH 6.5, which was set as the target pH of the eye drops, and the formulation prepared at 7.0, which was the average pH of the eyes, as shown in Table 4 below.

[6] = Osmotic pressure of trehalose-only formulations; format: physicochemical; conditions: trehalose-only formulation
Method: The osmotic pressure of the trehalose-only formulations according to the (PEG)-BHD1028 content (see Table 5) and the osmotic pressure of the trehalose-mannitol composite formulations according to the (PEG)-BHD1028 content (see Table 6) were measured, and reflecting the experimental results, the osmolarity including the 0.5% (PEG)-BHD1028 concentration was adjusted to about 300 mOsm/kg.

Substance: NH2-Tyr-Tyr-Phe-Ala-Tyr-His-Pro-Asn-Ile-Pro-Gly-Leu-Tyr-Tyr-Phe-COOH (H-YYFAYHPNIPGLYYF-OH; also: PEGylated, site not given here (mPEG), acetate salt) [(PEG)-BHD1028]
- TBUT ([1]; 0.001%, Day 5): 1.333 ± 0.081 s
- TBUT ([1]; 0.001%, Day 10): 1.359 ± 0.140 s
- TBUT ([1]; 0.01%, Day 5): 1.406 ± 0.082 s
- TBUT ([1]; 0.01%, Day 10): 1.530 ± 0.137 s
- TBUT ([1]; 0.1%, Day 5): 1.408 ± 0.095 s
- TBUT ([1]; 0.1%, Day 10): 1.483 ± 0.113 s
- CFS ([2]; 0.001%, Day 5): 9.875 ± 1.808 score
- CFS ([2]; 0.001%, Day 10): 11.000 ± 1.927 score
- CFS ([2]; 0.01%, Day 5): 8.625 ± 1.598 score
- CFS ([2]; 0.01%, Day 10): 7.625 ± 1.598 score
- CFS ([2]; 0.1%, Day 5): 8.125 ± 1.553 score
- CFS ([2]; 0.1%, Day 10): 8.375 ± 1.302 score
- number of CD11b+ monocytes ([3]; conjunctiva, 0.001%): 352.09
- number of CD11b+ monocytes ([3]; conjunctiva, 0.01%): 330.48
- number of CD11b+ monocytes ([3]; conjunctiva, 0.1%): 36.35
- geometric mean number of CD11b+ monocytes ([3]; 0.001%): 178.06
- geometric mean number of CD11b+ monocytes ([3]; 0.01%): 131.59
- geometric mean number of CD11b+ monocytes ([3]; 0.1%): 126.25
- number of CD11b+ monocytes ([3]; lacrimal gland, 0.001%): 84
- number of CD11b+ monocytes ([3]; lacrimal gland, 0.01%): 74.60
- number of CD11b+ monocytes ([3]; lacrimal gland, 0.1%): 60.48
- mean corneal epithelial thickness [4]: significantly greater than that of the vehicle treated animals
- Residual amount ([5]; PBS (pH 7.4), Day 0): 100.0%
- Residual amount ([5]; PBS (pH 7.4), Day 1): 97.1%
- Residual amount ([5]; PBS (pH 7.4), Day 3): 92.3%
- Residual amount ([5]; PBS (pH 7.4), Day 7): 89.9%
- Residual amount ([5]; pH 5.5, Day 0): 100.0%
- Residual amount ([5]; pH 5.5, Day 1): 98.4%
- Residual amount ([5]; pH 5.5, Day 3): 97.2%
- Residual amount ([5]; pH 5.5, Day 7): 96.6%
- Residual amount ([5]; pH 6.0, Day 0): 100.0%
- Residual amount ([5]; pH 6.0, Day 1): 99.8%
- Residual amount ([5]; pH 6.0, Day 3): 99.0%
- Residual amount ([5]; pH 6.0, Day 7): 98.1%
- Residual amount ([5]; pH 6.5, Day 0): 100.0%
- Residual amount ([5]; pH 6.5, Day 1): 99.7%
- Residual amount ([5]; pH 6.5, Day 3): 98.7%
- Residual amount ([5]; pH 6.5, Day 7): 97.3%
- Residual amount ([5]; pH 7.0, Day 0): 100.0%
- Residual amount ([5]; pH 7.0, Day 1): 99.2%
- Residual amount ([5]; pH 7.0, Day 3): 98.7%
- Residual amount ([5]; pH 7.0, Day 7): 94.9%
- most stable pH within the pH range of normal tears ([5]; pH range 6.5 to 7.6): 6.5
- osmotic pressure, Mean ([6]; 0.5%): 300.33 mOsm/kg
- osmotic pressure, single measurements #1-#3 ([6]; 0.5%): 299 mOsm/kg and 301 mOsm/kg
- osmotic pressure, Mean ([6]; 1.5%): 308.67 mOsm/kg
- osmotic pressure, single measurements #1-#3 ([6]; 1.5%): 310 mOsm/kg and 309 mOsm/kg and 307 mOsm/kg
- osmotic pressure, Mean ([6]; 4.5%): 335.00 mOsm/kg
- osmotic pressure, single measurements #1-#3 ([6]; 4.5%): 335 mOsm/kg
